The text below walks through data of PMC3967872 (DNA repair, 2014).

First the molecules themselves.
B1: His-tagged full-length S. pombe Apn2 with Ser at position 254 (His-Apn2^S254) (enzyme, UniProt P87175 1-523, looked up)
chain: MRILSWNVNGIQNPFNYFPWNKKNSYKEIFQELQADVICVQELKMQKDSFPQQYAVVEGFDSYFTFPKIRKGYSGVGFYVKKDVAIPVKAEEGITGILPVRGQKYSYSEAPEHEKIGFFPKDIDRKTANWIDSEGRCILLDFQMFILIGVYCPVNSGENRLEYRRAFYKALRERIERLIKEGNRKIILVGDVNILCNPIDTADQKDIIRESLIPSIMESRQWIRDLLLPSRLGLLLDIGRIQHPTRKGMFTCWSTRLNTRPTNYGTRIDYTLATPDLLPWVQDADIMAEVMGSDHCPVYLDLKEEYEGKKLSNFLSHSKEPPLLSTAHHSAYRPSKNIHSMFQHFNSMKKNKNNSPTQSENVSASASSGSSPTVSRANSVIDVDAYPPEKRRRKEQSKLLSFFAKQKEEKEETNKTEDVSIEVLDNNNESDIGLTVKKKVENGNAWKQIFSERAPPLCEGHKEPCKYLTVRKPGINYGRKFWICARPVGELIKNSNAVSEEDTQPFQCRFFIWDSDWRANSKD
B2: GST fusion of S. pombe Myh1(245-461) (domain or fragment, UniProt Q10159 245-461, looked up)
chain: YQEQNVIRDGNTIKYDIEDVPCNICITDIPSKEDLQNWVVARYPVHPAKTKQREERALVVIFQKTDPSTKEKFFLIRKRPSAGLLAGLWDFPTIEFGQESWPKDMDAEFQKSIAQWISNDSRSLIKKYQSRGRYLHIFSHIRKTSHVFYAIASPDIVTNEDFFWISQSDLEHVGMCELGLKNYRAALEIKKRKVTSLSNFKEPKLTSARRIVTKAEC
B3: GST fusion of S. pombe Myh1(I261A) (enzyme, UniProt Q10159 1-461, looked up)
chain: MSDSNHSLDLHSYTQLEVERFRESLIQFYDKTKRILPWRKKECIPPSEDSPLEDWEQPVQRLYEVLVSEIMLQQTRVETVKRYYTKWMETLPTLKSCAEAEYNTQVMPLWSGMGFYTRCKRLHQACQHLAKLHPSEIPRTGDEWAKGIPGVGPYTAGAVLSIAWKQPTGIVDGNVIRVLSRALAIHSDCSKGKANALIWKLANELVDPVRPGDFNQALMELGAITCTPQSPRCSVCPISEICKAYQEQNVIRDGNTIKYDAEDVPCNICITDIPSKEDLQNWVVARYPVHPAKTKQREERALVVIFQKTDPSTKEKFFLIRKRPSAGLLAGLWDFPTIEFGQESWPKDMDAEFQKSIAQWISNDSRSLIKKYQSRGRYLHIFSHIRKTSHVFYAIASPDIVTNEDFFWISQSDLEHVGMCELGLKNYRAALEIKKRKVTSLSNFKEPKLTSARRIVTKAEC
B4: GST fusion of intact wild-type S. pombe Myh1 (GST-Myh1) (enzyme, UniProt Q10159 1-461, looked up)
chain: B3 chain with A261I
B5: His- and maltose binding protein (MBP)-tagged SpApn2 residues 1-303 (His-MBP-Apn2^1-303) (domain or fragment, S. pombe, UniProt P87175 1-303, looked up)
chain: MRILSWNVNGIQNPFNYFPWNKKNSYKEIFQELQADVICVQELKMQKDSFPQQYAVVEGFDSYFTFPKIRKGYSGVGFYVKKDVAIPVKAEEGITGILPVRGQKYSYSEAPEHEKIGFFPKDIDRKTANWIDSEGRCILLDFQMFILIGVYCPVNSGENRLEYRRAFYKALRERIERLIKEGNRKIILVGDVNILCNPIDTADQKDIIRESLIPSIMESRQWIRDLLLPSRLGLLLDIGRIQHPTRKGMFTCWSTRLNTRPTNYGTRIDYTLATPDLLPWVQDADIMAEVMGSDHCPVYLDLK

Residue numbers refer to the chain shown, from its start. Numbers in names are those of the source.

Common to all, as to test: pull-down
The target in assay [1] is B2.
Assay [2] deals with T1, His-tagged full-length S. pombe Apn2 with Asn at position 254 (His-Apn2^N254) (S. pombe, UniProt P87175 1-523).
T1 sequence (looked up): B1 chain with S254N

Assay [3] concerns the target T2, His-tagged full-length SpApn2^N254/S295, catalytically inactive mutant (His-Apn2^S295) (S. pombe, UniProt P87175 1-523, H295S).
T2 sequence (looked up): B1 chain with S254N, H295S

Assay [4] concerns the target B4.

For B1, the “fold weaker interaction than intact Myh1” value in assay [1] is 2 fold.

Consider B2, for which, in assay [2], the binding result is “binds”.

Consider B3, for which the binding result in assay [2] was “binds”.

As to B4, the binding result in assay [2] and in assay [3] was “binds” in each case.

Take B5: in assay [4], the binding result was “binds”.
